Measurements as given in publication PMC4031069 (Nature materials, 2014).

Biological target: monomeric biotinylated FN7-10 (biotin (biotinylated; site not stated))
Assay: SPR

B1: purified recombinant human αvβ6 integrin (receptor)
chain 1: FNLDVDSPAEYSGPEGSYFGFAVDFFVPSASSRMFLLVGAPKANTTQPGIVEGGQVLKCDWSSTRRCQPIEFDATGNRDYAKDDPLEFKSHQWFGASVRSKQDKILACAPLYHWRTEMKQEREPVGTCFLQDGTKTVEYAPCRSQDIDADGQGFCQGGFSIDFTKADRVLLGGPGSFYWQGQLISDQVAEIVSKYDPNVYSIKYNNQLATRTAQAIFDDSYLGYSVAVGDFNGDGIDDFVSGVPRAARTLGMVYIYDGKNMSSLYNFTGEQMAAYFGFSVAATDINGDDYADVFIGAPLFMDRGSDGKLQEVGQVSVSLQRASGDFQTTKLNGFEVFARFGSAIAPLGDLDQDGFNDIAIAAPYGGEDKKGIVYIFNGRSTGLNAVPSQILEGQWAARSMPPSFGYSMKGATDIDKNGYPDLIVGAFGVDRAILYRARPVITVNAGLEVYPSILNQDNKTCSLPGTALKVSCFNVRFCLKADGKGVLPRKLNFQVELLLDKLKQKGAIRRALFLYSRSPSHSKNMTISRGGLMQCEELIAYLRDESEFRDKLTPITIFMEYRLDYRTAADTTGLQPILNQFTPANISRQAHILLDCGEDNVCKPKLEVSVDSDQKKIYIGDDNPLTLIVKAQNQGEGAYEAELIVSIPLQADFIGVVRNNEALARLSCAFKTENQTRQVVCDLGNPMKAGTQLLAGLRFSVHQQSEMDTSVKFDLQIQSSNLFDKVSPVVSHKVDLAVLAAVEIRGVSSPDHVFLPIPNWEHKENPETEEDVGPVVQHIYELRNNGPSSFSKAMLHLQWPYKYNNNTLLYILHYDIDGPMNCTSDMEINPLRIKISSLQTTEKNDTVAGQGERDHLITKRDLALSEGDIHTLGCGVAQCLKIVCQVGRLDRGKSAILYVKSLLWTETFMNKENQNHSYSLKSSASFNVIEFPYKNLPIEDITNSTLVTTNVTWGIQPAPMPV
chain 2: GCALGGAETCEDCLLIGPQCAWCAQENFTHPSGVGERCDTPANLLAKGCQLNFIENPVSQVEILKNKPLSVGRQKNSSDIVQIAPQSLILKLRPGGAQTLQVHVRQTEDYPVDLYYLMDLSASMDDDLNTIKELGSRLSKEMSKLTSNFRLGFGSFVEKPVSPFVKTTPEEIANPCSSIPYFCLPTFGFKHILPLTNDAERFNEIVKNQKISANIDTPEGGFDAIMQAAVCKEKIGWRNDSLHLLVFVSDADSHFGMDSKLAGIVIPNDGLCHLDSKNEYSMSTVLEYPTIGQLIDKLVQNNVLLIFAVTQEQVHLYENYAKLIPGATVGLLQKDSGNILQLIISAYEELRSEVELEVLGDTEGLNLSFTAICNNGTLFQHQKKCSHMKVGDTASFSVTVNIPHCERRSRHIIIKPVGLGDALELLVSPECNCDCQKEVEVNSSKCHHGNGSFQCGVCACHPGHMGPRCECGEDMLSTDSCKEAPDHPSCSGRGDCYCGQCICHLSPYGNIYGPYCQCDNFSCVRHKGLLCGGNGDCDCGECVCRSGWTGEYCNCTTSTDSCVSEDGVLCSGRGDCVCGKCVCTNPGASGPTCERCPTCGDPCNSKRSCIECHLSAAGQAREECVDKCKLAGATISEEEDFSKDGSVSCSLQGENECLITFLITTDNEGKTIIHSINEKDCPKPPNIP
B1 was tested, and the “kont relative to α5β1” value was about 0.5 fold.
